Data reported in the supplement of paper PMC5998384.

Columns and labels:
HeLa Kyoto [1] = assay: solubility change mitosis vs G1/S (difference of NP-40 vs SDS log2 ratios) (log2 ratio difference); higher = more soluble in mitosis
HeLa Kyoto [2] = assay: solubility in G1/S (NP-40 vs SDS abundance) (log2 ratio); higher = more soluble; conditions: cell cycle stage: G1/S
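Wherever solubility change mitosis vs G1/S (difference of NP-40 vs SDS log2 ratios) is given: synchronized HeLa Kyoto cells (double thymidine block for G1/S, nocodazole release for mitosis), protein amounts in NP-40 versus SDS lysates quantified by mass spectrometry, three biological replicates.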
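Wherever solubility in G1/S (NP-40 vs SDS abundance) is given: HeLa Kyoto cells arrested at G1/S by double thymidine block, proteins quantified by TMT10plex mass spectrometry in mild NP-40 versus SDS extracts, three biological replicates.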

Sequence	solubility change mitosis (log2) (HeLa Kyoto [1])	solubility in G1/S (log2) (HeLa Kyoto [2])
MSEVLPADSGVDTLAVFMASSGTTDVTNRNSPATPPNTLNLRSSHNELLNAEIKHTETKNSTPPKCRKKYALTNIQAAMGLSDPAAQPLLGNGSANIKLVKNGENQLRKAAEQGQQDPNKNLSPTAVINITSEKLEGKEPHPQDSSSCEILPSQPRRTKSFLNYYADLETSARELEQNRGNHHGTAEEKSQPVQGQASTIIGNGDLLLQKPNRPQSSPEDGQVATVSSSPETKKDHPKTGAKTDCALHRIQNLAPSDEESSWTTLSQDSASPSSPDETDIWSDHSFQTDPDLPPGWKRVSDIAGTYYWHIPTGTTQWERPVSIPADLQGSRKGSLSSVTPSPTPENEKQPWSDFAVLNGGKINSDIWKDLHAATVNPDPSLKEFEGATLRYASLKLRNAPHPDDDDSCSINSDPEAKCFAVRSLGWVEMAEEDLAPGKSSVAVNNCIRQLSYCKNDIRDTVGIWGEGKDMYLILENDMLSLVDPMDRSVLHSQPIVSIRVWGVGRDNGRDFAYVARDKDTRILKCHVFRCDTPAKAIATSLHEICSKIMAERKNAKALACSSLQERANVNLDVPLQVDFPTPKTELVQKFHVQYLGMLPVDKPVGMDILNSAIENLMTSSNKEDWLSVNMNVADATVTVISEKNEEEVLVECRVRFLSFMGVGKDVHTFAFIMDTGNQRFECHVFWCEPNAGNVSEAVQAACMLRYQKCLVARPPSQKVRPPPPPADSVTRRVTTNVKRGVLSLIDTLKQKRPVTEMP [APBB2]	-0.0698	0.0839
MAEAATGFLEQLKSCIVWSWTYLWTVWFFIVLFLVYILRVPLKINDNLSTVSMFLNTLTPKFYVALTGTSSLISGLILIFEWWYFRKYGTSFIEQVSVSHLRPLLGGVDNNSSNNSNSSNGDSDSNRQSVSECKVWRNPLNLFRGAEYNRYTWVTGREPLTYYDMNLSAQDHQTFFTCDSDHLRPADAIMQKAWRERNPQARISAAHEALEINEIRSRVEVPLIASSTIWEIKLLPKCATAYILLAEEEATTIAEAEKLFKQALKAGDGCYRRSQQLQHHGSQYEAQHRRDTNVLVYIKRRLAMCARRLGRTREAVKMMRDLMKEFPLLSMFNIHENLLEALLELQAYADVQAVLAKYDDISLPKSATICYTAALLKARAVSDKFSPEAASRRGLSTAEMNAVEAIHRAVEFNPHVPKYLLEMKSLILPPEHILKRGDSEAIAYAFFHLAHWKRVEGALNLLHCTWEGTFRMIPYPLEKGHLFYPYPICTETADRELLPSFHEVSVYPKKELPFFILFTAGLCSFTAMLALLTHQFPELMGVFAKAMIDIFCSAEFRDWNCKSIFMRVEDELEIPPAPQSQHFQN [ST7]	0.0591	-0.381
MAAGSDLLDEVFFNSEVDEKVVSDLVGSLESQLAASAAHHHHLAPRTPEVRAAAAGALGNHVVSGSPAGAAGAGPAAPAEGAPGAAPEPPPAGRARPGGGGPQRPGPPSPRRPLVPAGPAPPAAKLRPPPEGSAGSCAPVPAAAAVAAGPEPAPAGPAKPAGPAALAARAGPGPGPGPGPGPGPGPGKPAGPGAAQTLNGSAALLNSHHAAAPAVSLVNNGPAALLPLPKPAAPGTVIQTPPFVGAAAPPAPAAPSPPAAPAPAAPAAAPPPPPPAPATLARPPGHPAGPPTAAPAVPPPAAAQNGGSAGAAPAPAPAAGGPAGVSGQPGPGAAAAAPAPGVKAESPKRVVQAAPPAAQTLAASGPASTAASMVIGPTMQGALPSPAAVPPPAPGTPTGLPKGAAGAVTQSLSRTPTATTSGIRATLTPTVLAPRLPQPPQNPTNIQNFQLPPGMVLVRSENGQLLMIPQQALAQMQAQAHAQPQTTMAPRPATPTSAPPVQISTVQAPGTPIIARQVTPTTIIKQVSQAQTTVQPSATLQRSPGVQPQLVLGGAAQTASLGTATAVQTGTPQRTVPGATTTSSAATETMENVKKCKNFLSTLIKLASSGKQSTETAANVKELVQNLLDGKIEAEDFTSRLYRELNSSPQPYLVPFLKRSLPALRQLTPDSAAFIQQSQQQPPPPTSQATTALTAVVLSSSVQRTAGKTAATVTSALQPPVLSLTQPTQVGVGKQGQPTPLVIQQPPKPGALIRPPQVTLTQTPMVALRQPHNRIMLTTPQQIQLNPLQPVPVVKPAVLPGTKALSAVSAQAAAAQKNKLKEPGGGSFRDDDDINDVASMAGVNLSEESARILATNSELVGTLTRSCKDETFLLQAPLQRRILEIGKKHGITELHPDVVSYVSHATQQRLQNLVEKISETAQQKNFSYKDDDRYEQASDVRAQLKFFEQLDQIEKQRKDEQEREILMRAAKSRSRQEDPEQLRLKQKAKEMQQQELAQMRQRDANLTALAAIGPRKKRKVDCPGPGSGAEGSGPGSVVPGSSGVGTPRQFTRQRITRVNLRDLIFCLENERETSHSLLLYKAFLK [TAF4]	0.0124	0.132
MKRQSERDSSPSGRGSSSSAKRPREREREAEAGGRRAAHKASGGAKHPVPARARDKPRGSGSGGGGHRDGRGTGDANHRASSGRSSGSGAGGGGRGGKASGDPGASGMSPRASPLPPPPPPPGAEPACPGSSAAAPEYKTLLISSLSPALPAEHLEDRLFHQFKRFGEISLRLSHTPELGRVAYVNFRHPQDAREARQHALARQLLLYDRPLKVEPVYLRGGGGSSRRSSSSSAAASTPPPGPPAPADPLGYLPLHGGYQYKQRSLSPVAAPPLREPRARHAAAAFALDAAAAAAVGLSRERALDYYGLYDDRGRPYGYPAVCEEDLMPEDDQRATRNLFIGNLDHSVSEVELRRAFEKYGIIEEVVIKRPARGQGGAYAFLKFQNLDMAHRAKVAMSGRVIGRNPIKIGYGKANPTTRLWVGGLGPNTSLAALAREFDRFGSIRTIDHVKGDSFAYIQYESLDAAQAACAKMRGFPLGGPDRRLRVDFAKAEETRYPQQYQPSPLPVHYELLTDGYTRHRNLDADLVRDRTPPHLLYSDRDRTFLEGDWTSPSKSSDRRNSLEGYSRSVRSRSGERWGADGDRGLPKPWEERRKRRSLSSDRGRTTHSPYEERSRTKGSGQQSERGSDRTPERSRKENHSSEGTKESSSNSLSNSRHGAEERGHHHHHHEAADSSHGKKARDSERNHRTTEAEPKPLEEPKHETKKLKNLSEYAQTLQLGWNGLLVLKNSCFPTSMHILEGDQGVISSLLKDHTSGSKLTQLKIAQRLRLDQPKLDEVTRRIKQGSPNGYAVLLATQATPSGLGTEGMPTVEPGLQRRLLRNLVSYLKQKQAAGVISLPVGGSKGRDGTGMLYAFPPCDFSQQYLQSALRTLGKLEEEHMVIVIVRDTA [RBM15B]	0.504	-0.311
MAAPVGPVKFWRPGTEGPGVSISEERQSLAENSGTTVVYNPYAALSIEQQRQKLPVFKLRNHILYLIENYQTVVIVGETGCGKSTQIPQYLAEAGWTAEGRVVGVTQPRRVAAVTVAGRVAEERGAVLGHEVGYCIRFDDCTDQLATRIKFLTDGMLVREMMVDPLLTKYSVIMLDEAHERTLYTDIAIGLLKKIQKKRGDLRLIVASATLDADKFRDFFNQNETSDPARDTCVILTVEGRTFPVDIFYLQSPVPDYIKSTVETVVKIHQTEGDGDVLAFLTGQEEVETVVSMLIEQARALARTGMKRHLRVLPMYAGLPSFEQMKVFERVSRSVRKVIVATNVAETSITISGIVYVIDCGFVKLRAYNPRTAIECLVVVPVSQASANQRAGRGGRSRSGKCYRLYTEEAFDKLPQSTVPEMQRSNLAPVILQLKALGIDNVLRFHFMSPPPAQSMVQALELLYALGGLDKDCRLTEPLGMRIAEFPLNPMFAKMLLESGNFGCSQEILSIAAMMQIQNIFVVPPNQKSHAIRVHRKFAVEEGDHLTMLNIYEAFIKHNKDSKWCQEHFLNYKGLVRAATVREQLKKLLVKFQVPRKSSEGDPDLVLRCIVSGFFANAARFHSTGAYRTIRDDHELHIHPASVLYAEKPPRWVIYNEVIQTSKYYMRDVTAIESAWLLELAPHFYQQGTHLSLKAKRAKVQDP [DHX35]	0.261	-0.538
MATLIYVDKENGEPGTRVVAKDGLKLGSGPSIKALDGRSQVSTPRFGKTFDAPPALPKATRKALGTVNRATEKSVKTKGPLKQKQPSFSAKKMTEKTVKAKSSVPASDDAYPEIEKFFPFNPLDFESFDLPEEHQIAHLPLSGVPLMILDEERELEKLFQLGPPSPVKMPSPPWESNLLQSPSSILSTLDVELPPVCCDIDI [PTTG1]	0.554	0.176
MRPWTGSWRWIMLILFAWGTLLFYIGGHLVRDNDHPDHSSRELSKILAKLERLKQQNEDLRRMAESLRIPEGPIDQGPAIGRVRVLEEQLVKAKEQIENYKKQTRNGLGKDHEILRRRIENGAKELWFFLQSELKKLKNLEGNELQRHADEFLLDLGHHERSIMTDLYYLSQTDGAGDWREKEAKDLTELVQRRITYLQNPKDCSKAKKLVCNINKGCGYGCQLHHVVYCFMIAYGTQRTLILESQNWRYATGGWETVFRPVSETCTDRSGISTGHWSGEVKDKNVQVVELPIVDSLHPRPPYLPLAVPEDLADRLVRVHGDPAVWWVSQFVKYLIRPQPWLEKEIEEATKKLGFKHPVIGVHVRRTDKVGTEAAFHPIEEYMVHVEEHFQLLARRMQVDKKRVYLATDDPSLLKEAKTKYPNYEFISDNSISWSAGLHNRYTENSLRGVILDIHFLSQADFLVCTFSSQVCRVAYEIMQTLHPDASANFHSLDDIYYFGGQNAHNQIAIYAHQPRTADEIPMEPGDIIGVAGNHWDGYSKGVNRKLGRTGLYPSYKVREKIETVKYPTYPEAEK [FUT8]	-0.0307	-0.188
MSRQAKDDFLRHYTVSDPRTHPKGYTEYKVTAQFISKKDPEDVKEVVVWKRYSDFRKLHGDLAYTHRNLFRRLEEFPAFPRAQVFGRFEASVIEERRKGAEDLLRFTVHIPALNNSPQLKEFFRGGEVTRPLEVSRDLHILPPPLIPTPPPDDPRLSQLLPAERRGLEELEVPVDPPPSSPAQEALDLLFNCESTEEASGSPARGPLTEAELALFDPFSKEEGAAPSPTHVAELATMEVESARLDQEPWEPGGQEEEEDGEGGPTPAYLSQATELITQALRDEKAGAYAAALQGYRDGVHVLLQGVPSDPLPARQEGVKKKAAEYLKRAEEILRLHLSQLPP [SNX15]	-0.104	0.365
MAAATVGRDTLPEHWSYGVCRDGRVFFINDQLRCTTWLHPRTGEPVNSGHMIRSDLPRGWEEGFTEEGASYFIDHNQQTTAFRHPVTGQFSPENSEFILQEEPNPHMSKQDRNQRPSSMVSETSTAGTASTLEAKPGPKIIKSSSKVHSFGKRDQAIRRNPNVPVVVRGWLHKQDSSGMRLWKRRWFVLADYCLFYYKDSREEAVLGSIPLPSYVISPVAPEDRISRKYSFKAVHTGMRALIYNSSTAGSQAEQSGMRTYYFSADTQEDMNAWVRAMNQAAQVLSRSSLKRDMEKVERQAVPQANHTESCHECGRVGPGHTRDCPHRGHDDIVNFERQEQEGEQYRSQRDPLEGKRDRSKARSPYSPAEEDALFMDLPTGPRGQQAQPQRAEKNGMLPASYGPGEQNGTGGYQRAFPPRTNPEKHSQRKSNLAQVEHWARAQKGDSRSLPLDQTLPRQGPGQSLSFPENYQTLPKSTRHPSGGSSPPPRNLPSDYKYAQDRASHLKMSSEERRAHRDGTVWQLYEWQQRQQFRHGSPTAPICLGSPEFTDQGRSRSMLEVPRSISVPPSPSDIPPPGPPRVFPPRRPHTPAERVTVKPPDQRRSVDISLGDSPRRARGHAVKNSSHVDRRSMPSMGYMTHTVSAPSLHGKSADDTYLQLKKDLEYLDLKMTGRDLLKDRSLKPVKIAESDTDVKLSIFCEQDRVLQDLEDKIRALKENKDQLESVLEVLHRQMEQYRDQPQHLEKIAYQQKLLQEDLVHIRAELSRESTEMENAWNEYLKLENDVEQLKQTLQEQHRRAFFFQEKSQIQKDLWRIEDVTAGLSANKENFRILVESVKNPERKTVPLFPHPPVPSLSTSESKPPPQPSPPTSPVRTPLEVRLFPQLQTYVPYRPHPPQLRKVTSPLQSPTKAKPKVEDEAPPRPPLPELYSPEDQPPAVPPLPREATIIRHTSVRGLKRQSDERKRDRELGQCVNGDSRVELRSYVSEPELATLSGDMAQPSLGLVGPESRYQTLPGRGLSGSTSRLQQSSTIAPYVTLRRGLNAESSKATFPRPKSALERLYSGDHQRGKMSAEEQLERMKRHQKALVRERKRTLGQGERTGLPSSRYLSRPLPGDLGSVC [PLEKHA7]	0.454	-0.548
